Tests used:
[1] = target: T1, SsoPCNA2 (Sulfolobus solfataricus); assay: SPR; 0.61 nM SsoPCNA1
T1 chain: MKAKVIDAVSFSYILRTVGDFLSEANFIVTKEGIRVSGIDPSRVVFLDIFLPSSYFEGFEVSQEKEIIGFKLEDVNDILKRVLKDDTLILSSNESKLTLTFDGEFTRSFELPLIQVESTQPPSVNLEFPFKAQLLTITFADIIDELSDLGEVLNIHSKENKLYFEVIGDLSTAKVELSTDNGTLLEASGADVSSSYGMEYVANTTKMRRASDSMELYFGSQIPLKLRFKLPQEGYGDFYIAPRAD

[2] = target: T2, MsePCNA2 (Metallosphaera sedula, UniProt A4YHP5 1-244); assay: SPR; 0.61 nM SsoPCNA1
T2 chain: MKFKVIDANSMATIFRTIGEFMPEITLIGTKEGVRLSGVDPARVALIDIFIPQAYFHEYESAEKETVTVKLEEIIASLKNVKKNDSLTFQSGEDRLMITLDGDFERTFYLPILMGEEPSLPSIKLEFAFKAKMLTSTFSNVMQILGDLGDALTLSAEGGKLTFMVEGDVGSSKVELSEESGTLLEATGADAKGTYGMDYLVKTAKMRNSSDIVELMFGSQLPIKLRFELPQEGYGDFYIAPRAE

[3] = target: T2, MsePCNA2; assay: SPR; 75 nM SsoPCNA1
[4] = target: T1, SsoPCNA2; assay: SPR; 10 nM SsoPCNA1
[5] = target: T2, MsePCNA2; assay: SPR; 10 nM SsoPCNA1
[6] = target: T2, MsePCNA2; assay: SPR; 10 nM SsoPCNA1
[7] = target: T1, SsoPCNA2; assay: SPR; 40 nM SsoPCNA1
[8] = target: T1, SsoPCNA2; assay: SPR; 75 nM SsoPCNA1
[9] = target: T2, MsePCNA2; assay: SPR; 75 nM SsoPCNA1
[10] = target: T1, SsoPCNA2; assay: SPR; 0.61 nM SsoPCNA1
[11] = target: T2, MsePCNA2; assay: SPR; 0.61 nM SsoPCNA1
[12] = target: T1, SsoPCNA2; assay: SPR; 2.5 nM SsoPCNA1
[13] = target: T2, MsePCNA2; assay: SPR; 2.5 nM SsoPCNA1
[14] = target: T2, MsePCNA2; assay: SPR; 40 nM SsoPCNA1
[15] = target: T1, SsoPCNA2; assay: SPR; 20 nM SsoPCNA1
[16] = target: T2, MsePCNA2; assay: SPR; 20 nM SsoPCNA1
[17] = target: T1, SsoPCNA2; assay: SPR; 5 nM SsoPCNA1
[18] = target: T1, SsoPCNA2; assay: SPR; 5 nM SsoPCNA1
[19] = target: T2, MsePCNA2; assay: SPR; 5 nM SsoPCNA1
[20] = target: T1, SsoPCNA2; assay: SPR; Biacore; about 350 RU of MsePCNA2 or SsoPCNA2 immobilised on Sensor Chip CM5; MsePCNA1 or SsoPCNA1 injected (2.5, 5, 10, 20, 40 nM), kinetic fit; 10 mM HEPES-HCl pH 7.4, 150 mM NaCl
[21] = target: T1, SsoPCNA2; assay: SPR; 20 nM SsoPCNA1
[22] = target: T2, MsePCNA2; assay: SPR; 20 nM SsoPCNA1
[23] = target: T1, SsoPCNA2; assay: SPR; 2.5 nM SsoPCNA1
[24] = target: T2, MsePCNA2; assay: SPR; 2.5 nM SsoPCNA1

B1: SsoPCNA1 (natural protein)
chain: MFKIVYPNAKDFFSFINSITNVTDSIILNFTEDGIFSRHLTEDKVLMAIMRIPKDVLSEYSIDSPTSVKLDVSSVKKILSKASSKKATIELTETDSGLKIIIRDEKSGAKSTIYIKAEKGQVEQLTEPKVNLAVNFTTDESVLNVIAADVTLVGEEMRISTEEDKIKIEAGEEGKRYVAFLMKDKPLKELSIDTSASSSYSAEMFKDAVKGLRGFSAPTMVSFGENLPMKIDVEAVSGGHMIFWIAPRL
koff [1]: 0.000172 s⁻¹
koff [2]: 0.000528 s⁻¹
Kd [3]: 2.14 nM
koff [4]: 0.000182 s⁻¹
koff [5]: 0.000501 s⁻¹
Kd [6]: 1.57 nM
koff [7]: 0.000134 s⁻¹
koff [8]: 3.07e-05 s⁻¹
koff [9]: 9.46e-05 s⁻¹
Kd [10]: 0.383 nM
Kd [11]: 1.21 nM
koff [12]: 0.000171 s⁻¹
koff [13]: 0.000512 s⁻¹
Kd [14]: 1.63 nM
Kd [15]: 0.116 nM
Kd [16]: 2.67 nM
Kd [17]: 0.602 nM
koff [18]: 0.000173 s⁻¹
koff [19]: 0.000505 s⁻¹
Kd [20]: 0.65 nM
koff [20]: 0.00015 s⁻¹
kon [20]: 250000 M⁻¹ s⁻¹
koff [21]: 0.000163 s⁻¹
koff [22]: 0.000472 s⁻¹
Kd [23]: 0.473 nM
Kd [24]: 1.41 nM
